Data reported in patent publication US20210332142A1 (Genentech, published 2021).
Like-named read-outs stand apart in the source and are kept apart here. Values belong to the binder of their own block, whether it stands above or below them.

Assays:
[1] = target: T1, recombinant human Tie2 extracellular domain (human, UniProt Q02763 23-748); test: SPR, IgG captured, 37C
T1 construct: whole entry named; also called Recombinant human Tie2 ECD; hu Tie2
Protocol: (§1) A human antibody capture chip was prepared using a Series S CM5 chip (GE Life Sciences), a human antibody capture kit (GE Life Sciences) and an amine coupling kit (GE Life Sciences). Antibodies diluted to 5 μg/ml in running buffer (10 mM HEPES, 150 mM NaCl, 0.05% Tween 20, 1 mM EDTA, pH 7.4) were non-covalently captured using a contact time of 20 seconds and a flow rate of 10 μl/minute. Binding to 300 nM and 1500 nM recombinant Tie2 was analyzed at 37° C. using a Single Cycle Kinetics method with a contact time of 60 seconds, a dissociation time of 120 seconds and a flow rate of 50 μl/min. Between cycles, the surface was regenerated by a 30 second injection of 3M MgCl₂ at a flow rate of 30 μl/min. Values for antibody capture levels and analyte binding levels were obtained from the Report Point Table (Biacore Evaluation Software v3.0, GE Life Sciences). […] Table 16: Experiment A; Table 17: Experiment B.

[2] = target: T2, recombinant cyno Tie2 extracellular domain (cynomolgus monkey, UniProt Q02763 23-748 (human entry)); test: SPR, IgG captured, 37C
T2 construct: also called Recombinant cyno Tie2 ECD; cy Tie2
T2 chain: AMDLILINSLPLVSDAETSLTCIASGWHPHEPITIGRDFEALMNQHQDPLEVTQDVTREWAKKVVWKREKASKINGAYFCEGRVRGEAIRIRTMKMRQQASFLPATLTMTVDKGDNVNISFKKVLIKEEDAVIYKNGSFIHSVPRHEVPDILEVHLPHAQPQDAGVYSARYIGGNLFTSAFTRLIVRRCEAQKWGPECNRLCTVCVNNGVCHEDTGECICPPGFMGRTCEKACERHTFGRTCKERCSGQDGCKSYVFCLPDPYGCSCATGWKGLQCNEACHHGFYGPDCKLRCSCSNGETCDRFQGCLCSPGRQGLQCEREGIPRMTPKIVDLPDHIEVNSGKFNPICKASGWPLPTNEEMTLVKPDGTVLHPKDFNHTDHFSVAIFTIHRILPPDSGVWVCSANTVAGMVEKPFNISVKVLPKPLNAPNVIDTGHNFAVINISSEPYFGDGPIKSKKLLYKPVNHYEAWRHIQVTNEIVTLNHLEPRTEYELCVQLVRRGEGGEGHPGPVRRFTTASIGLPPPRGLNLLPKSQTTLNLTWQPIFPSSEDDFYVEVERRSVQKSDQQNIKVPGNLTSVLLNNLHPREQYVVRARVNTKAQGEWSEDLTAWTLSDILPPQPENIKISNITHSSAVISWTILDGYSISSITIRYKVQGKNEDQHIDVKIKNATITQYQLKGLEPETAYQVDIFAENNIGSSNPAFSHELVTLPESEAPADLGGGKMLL
Protocol: as §1

[3] = target: T1, recombinant human Tie2 extracellular …; test: SPR, IgG captured, 37C; remark: listed apart in the source
Protocol: as §1

[4] = target: T2, recombinant cyno Tie2 extracellular …; test: SPR, IgG captured, 37C
Protocol: as §1

[5] = target: T1, recombinant human Tie2 extracellular …; test: SPR, IgG captured, steady state analysis
Protocol: (§2) Binding to recombinant human and cyno Tie2 was analyzed using a high performance multi-cycle kinetics format with a contact time of 60 seconds, a dissociation time of 60 seconds, a flow rate of 100 μl/minute and Tie2 concentrations of 5 μM, 2.5 μM, 1.25 μM, 625 nM, 313 nM and 156 nM. Tie2 concentrations of 5 μM, 2.5 μM and 1.25 μM were injected twice. Results were analyzed using Biacore T200 Evaluation Software v3.0 (GE Life Sciences). Results from all three surface densities were analyzed together using the 1:1 Binding model with multiple Rmax and the RI parameter set to zero.

[6] = target: T2, recombinant cyno Tie2 extracellular …; test: SPR, IgG captured, steady state analysis
Protocol: as §2

[7] = target: T1, recombinant human Tie2 extracellular …; test: SPR multi-cycle kinetics, IgG captured, kinetic analysis
Protocol: Binding to 300 nM and 1500 nM recombinant Tie2 was analyzed at 37° C. using a Single Cycle Kinetics method with a contact time of 60 seconds, a dissociation time of 120 seconds and a flow rate of 50 μl/min. Between cycles, the surface was regenerated by a 30 second injection of 3M MgCl₂ at a flow rate of 30 μl/min. Values for antibody capture levels and analyte binding levels were obtained from the Report Point Table (Biacore Evaluation Software v3.0, GE Life Sciences). […] Table 16: Experiment A; Table 17: Experiment B.
as §2

[8] = target: T2, recombinant cyno Tie2 extracellular …; test: as above
Protocol: as §2

[9] = target: T2, recombinant cyno Tie2 extracellular …; test: SPR multi-cycle kinetics, IgG captured, kinetic analysis; cyno Tie2; kinetic analysis
Protocol: as §2

[10] = target: T1, recombinant human Tie2 extracellular …; test: SPR multi-cycle kinetics, IgG captured, kinetic analysis; human Tie2; kinetic analysis
Protocol: as §2

omalizumab = target: T3, omalizumab; test: phage ELISA
T3 construct: Used as irrelevant coated protein; also called irrelevant Fc-containing protein; not shown: the constant regions

human Tie2ECD.flag = target: T4, human Tie2ECD.flag (human, UniProt Q02763 23-748); test: Biacore, hIgG captured, 25C
T4 construct: also called hTie2.flag; not shown: C-terminal Flag tag
T4 sequence (Q02763 23-748 limits assumed): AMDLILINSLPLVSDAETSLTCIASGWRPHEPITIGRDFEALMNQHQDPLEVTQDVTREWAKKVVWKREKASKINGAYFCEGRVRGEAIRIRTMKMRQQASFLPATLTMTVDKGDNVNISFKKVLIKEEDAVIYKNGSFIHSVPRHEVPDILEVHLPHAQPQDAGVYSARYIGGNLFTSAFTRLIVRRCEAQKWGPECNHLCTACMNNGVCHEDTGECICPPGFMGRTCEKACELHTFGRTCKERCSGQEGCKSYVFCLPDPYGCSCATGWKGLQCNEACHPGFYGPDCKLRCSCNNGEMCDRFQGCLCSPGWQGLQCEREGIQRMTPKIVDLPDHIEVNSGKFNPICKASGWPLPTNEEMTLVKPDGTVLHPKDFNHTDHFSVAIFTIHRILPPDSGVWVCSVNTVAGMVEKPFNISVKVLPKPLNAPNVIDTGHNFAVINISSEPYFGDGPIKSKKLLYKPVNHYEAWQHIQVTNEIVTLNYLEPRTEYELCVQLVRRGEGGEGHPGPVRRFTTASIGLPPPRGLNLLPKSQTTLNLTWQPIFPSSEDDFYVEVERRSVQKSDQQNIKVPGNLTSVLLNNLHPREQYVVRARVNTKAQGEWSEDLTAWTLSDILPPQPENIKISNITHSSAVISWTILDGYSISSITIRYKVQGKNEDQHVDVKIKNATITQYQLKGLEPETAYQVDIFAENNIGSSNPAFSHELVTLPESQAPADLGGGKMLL
Protocol: (§3) Monovalent affinities of selected anti-Tie2 hIgGs were determined using a Biacore T200 instrument (GE Life Sciences). Anti-humanFc was covalently immobilized on a Series S CM5 Biacore sensor chip to enable non-covalent capture of anti-Tie2 antibodies and binding of human or rat Tie2ECD.flag was monitored in real time at 25° C. using a multi-cycle kinetics experiment format. Between cycles, the surface was regenerated with 3 M MgCl₂. Monovalent affinities were determined by kinetic analysis, using Biacore Evaluation Software (GE Life Sciences) to fit a 1:1 binding model to the data.

rat Tie2ECD.flag = target: T5, rat Tie2ECD.flag (rat, UniProt A0ABK0L6J5 19-740); test: Biacore, hIgG captured, 25C
T5 construct: extracellular domain; also called rTie2.flag; not shown: C-terminal Flag tag
Protocol: as §3

human Tie1 = target: T6, human Tie1 (human, UniProt P35590 22-759); test: ELISA: human Tie1 immobilized, serial dilutions of IgG, anti-huFc-HRP
T6 construct: extracellular domain
T6 sequence (looked up): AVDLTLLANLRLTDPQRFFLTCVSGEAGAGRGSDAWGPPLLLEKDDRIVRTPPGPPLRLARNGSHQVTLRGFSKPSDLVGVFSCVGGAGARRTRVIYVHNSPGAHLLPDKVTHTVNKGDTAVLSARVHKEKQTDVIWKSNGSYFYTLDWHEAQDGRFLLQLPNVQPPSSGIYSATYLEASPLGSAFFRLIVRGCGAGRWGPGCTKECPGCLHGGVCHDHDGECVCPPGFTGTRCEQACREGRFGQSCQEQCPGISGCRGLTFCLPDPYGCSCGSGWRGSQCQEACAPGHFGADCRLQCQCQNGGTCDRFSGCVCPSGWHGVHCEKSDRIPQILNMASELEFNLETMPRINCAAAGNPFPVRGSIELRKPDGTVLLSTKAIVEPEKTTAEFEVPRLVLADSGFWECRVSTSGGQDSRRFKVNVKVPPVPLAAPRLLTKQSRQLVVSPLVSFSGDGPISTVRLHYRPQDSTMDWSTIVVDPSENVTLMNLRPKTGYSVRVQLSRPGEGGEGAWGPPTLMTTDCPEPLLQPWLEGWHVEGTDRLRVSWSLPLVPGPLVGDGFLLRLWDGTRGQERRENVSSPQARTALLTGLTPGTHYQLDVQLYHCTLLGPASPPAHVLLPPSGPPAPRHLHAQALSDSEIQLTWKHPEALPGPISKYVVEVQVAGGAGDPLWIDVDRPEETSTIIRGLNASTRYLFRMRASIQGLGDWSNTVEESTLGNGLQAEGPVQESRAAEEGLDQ
Description: (§4) Plates were washed and detected with anti-huFC-conjugated HRP secondary antibody using the methods above.
The binding ELISA was also used with immobilized Tie1 protein to assess Tie1 binding.

mouse Tie2 ECD5 = target: T7, mouse Tie2 ECD5 (mouse, UniProt Q02858 23-442, limits assumed); test: ELISA: mouse Tie2 ECD5 construct immobilized, serial dilutions of IgG, anti-huFc-HRP
T7 construct: domain: ECD5 (Ig1, Ig2, EGF and Ig3 domains); also called mECD5
T7 sequence (Q02858 23-442 limits assumed): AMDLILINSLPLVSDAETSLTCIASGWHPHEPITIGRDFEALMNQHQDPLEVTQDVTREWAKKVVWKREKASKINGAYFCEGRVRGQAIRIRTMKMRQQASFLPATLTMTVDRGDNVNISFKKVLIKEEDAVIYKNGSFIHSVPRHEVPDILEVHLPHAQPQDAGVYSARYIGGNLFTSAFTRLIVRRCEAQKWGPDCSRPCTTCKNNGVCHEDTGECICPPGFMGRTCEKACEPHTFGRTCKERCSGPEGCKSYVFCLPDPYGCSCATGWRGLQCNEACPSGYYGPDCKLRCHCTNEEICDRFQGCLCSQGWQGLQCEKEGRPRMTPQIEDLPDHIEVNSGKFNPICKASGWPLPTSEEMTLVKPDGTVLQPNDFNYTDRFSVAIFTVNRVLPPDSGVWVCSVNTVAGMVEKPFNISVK
Description: as §4

[11] = target: T8, human Tie2 ECD5 (extracellular domain without the FN3 domains; Ig1, Ig2, EGF and Ig3 domains) (human, UniProt Q02763 23-442); test: ELISA: human Tie2 ECD5 construct immobilized, serial dilutions of IgG, anti-huFc-HRP
T8 construct: whole entry named; also called huECD5; hECD5; not shown: C-terminal carrier of the coated construct (hIgG1 Fc or Flag tag)
T8 sequence (Q02763 23-442 limits assumed): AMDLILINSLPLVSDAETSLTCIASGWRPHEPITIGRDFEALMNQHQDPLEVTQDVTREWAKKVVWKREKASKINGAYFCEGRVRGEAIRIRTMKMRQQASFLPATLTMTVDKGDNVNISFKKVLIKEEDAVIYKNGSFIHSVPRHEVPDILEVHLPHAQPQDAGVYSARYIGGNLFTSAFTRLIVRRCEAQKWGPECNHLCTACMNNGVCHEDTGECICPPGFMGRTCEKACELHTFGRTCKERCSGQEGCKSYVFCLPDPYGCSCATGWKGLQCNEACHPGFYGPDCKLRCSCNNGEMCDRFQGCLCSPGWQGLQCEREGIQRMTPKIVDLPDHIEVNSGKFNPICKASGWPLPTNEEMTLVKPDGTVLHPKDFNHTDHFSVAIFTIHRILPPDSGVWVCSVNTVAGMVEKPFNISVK
Description: as §4

[12] = target: T9, mouse Tie2 full extracellular domain fused to mIgG2a Fc (mouse, UniProt Q02858 23-746); test: phage ELISA
T9 construct: extracellular domain; also called mFull.Fc; not shown: Fc region of mIgG2a, fused at the C-terminus
Protocol: Clones from the fourth round were screened for Tie2 binding and specificity by ELISA. Screening ELISAs were carried out by coating the wells of a 96-well microtiter plate with Tie2 protein or irrelevant protein at 65 ul per well (1 ug/ml in coating buffer) at 4° C. overnight. In a 96-tube plate, colonies from the fourth round were grown overnight at 37° C. in 400 ul 2YT media with 50 ug/ml carbenicillin and helper phage K07. The plate was spun down at 3000 rpm for 10 min. 30 ul of the culture supernatant was added with 60 ul of ELISA buffer (PBS with 0.5% BSA and 0.05% Tween20) to the Tie2-coated plate and incubated at room temperature for 1 hr. Plates were washed with PBS—0.05% Tween20 and 100 ul/well of horseradish peroxidase (HRP)-conjugated anti-M13 antibody (1/5000 dilution in PBS plus 0.5% BSA and 0.05% Tween20) at room temperature for 30 min (Sidhu et al., supra). The wells were washed with PBS—0.05% Tween20 prior to 100 ul/well of a 1:1 ratio of 3,3′,5,5′-tetramethylbenzidine (TMB) peroxidase substrate and Peroxidase Solution B (H₂O₂) ((Kirkegaard-Perry Laboratories (Gaithersburg, Md.)) being added per well and incubated for 5 min at room temperature. The reaction was stopped by adding 100 ul 1M phosphoric Acid (H₃PO₄) per well and the OD of wells was determined using a standard ELISA plate reader at 450 nm.

- Normalized Binding Signal, 300 nM [1]: 0.14
- Normalized Binding Signal, 1500 nM [1]: 0.44
- Normalized Binding Signal, 300 nM [2]: 0.12
- Normalized Binding Signal, 1500 nM [2]: 0.42
- Normalized Binding Signal, 300 nM [3]: 0.16
- Normalized Binding Signal, 1500 nM [3]: 0.48
- Normalized Binding Signal, 300 nM [4]: 0.14
- Normalized Binding Signal, 1500 nM [4]: 0.46
- Kd [5]: 2000 nM
- Kd [6]: 2000 nM
- koff [7]: 0.39 s⁻¹
- kon [7]: 220000 M⁻¹ s⁻¹
- koff [8]: 0.37 s⁻¹
- kon [8]: 190000 M⁻¹ s⁻¹
- Kd [9]: 2000 nM
- Kd [10]: 2000 nM
B1: Tie2.1.M100cF (antibody, IgG1, V domains shown)
VH: EVQLVESGGGLVQPGGSLRLSCAASGFTFSNTDISWVRQAPGKGLEWVGRISPSDGNTYYADSVKGRFTISADTSKNTAYLQMNSLRAEDTAVYYCARRTRWASWAFDYWGQGTLVTVSS
VL: DIQMTQSPSSLSASVGDRVTITCRASQDVSTAVAWYQQKPGKAPKLLIYSASFLYSGVPSRFSGSGSGTDFTLTISSLQPEDFATYYCQQSYTTPPTFGQGTKVEIK
notes: hIgG1 in the SPR and binning assays

- binding result (omalizumab): no binding
- Kd (human Tie2ECD.flag): 52 nM
- Kd (rat Tie2ECD.flag): 116 nM
- binding result (human Tie1): no binding (tested: 200 nM)
- EC50 (read off the curve) (mouse Tie2 ECD5): ~1 nM
- EC50 (read off the curve) [11]: ~1 nM
B2: Tie2.12 (antibody, IgG1, V domains shown)
VH: EVQLVESGGGLVQPGGSLRLSCAASGFTFSSYWIHWVRQAPGKGLEWVAAISPNDGSTYYADSVKGRFTISADTSKNTAYLQMNSLRAEDTAVYYCARSRYYGQRLVYYVMDYWGQGTLVTVSS
VL: DIQMTQSPSSLSASVGDRVTITCRASQDVSTAVAWYQQKPGKAPKLLIYSASFLYSGVPSRFSGSGSGTDFTLTISSLQPEDFATYYCQQSYTTPPTFGQGTKVEIKR
notes: hIgG1 in later assays; also called Ab12

- binding result (omalizumab): no binding
- binding result [12]: binds
B3: Tie2.33 (antibody, IgG1, V domains shown)
VH: EVQLVESGGGLVQPGGSLRLSCAASGFTFSGSWISWVRQAPGKGLEWVARINPYDGNTYYADSVKGRFTISADTSKNTAYLQMNSLRAEDTAVYYCARNNRFPTWFDYWGQGTLVTVSS
VL: DIQMTQSPSSLSASVGDRVTITCRASQDVSTAVAWYQQKPGKAPKLLIYSASFLYSGVPSRFSGSGSGTDFTLTISSLQPEDFATYYCQQSYTTPPTFGQGTKVEIKR
notes: hIgG1 in later assays; also called Ab33; T2.33

- binding result (omalizumab): no binding
- binding result [12]: binds
- Kd (human Tie2ECD.flag): 376 nM
- Kd (rat Tie2ECD.flag): 2200 nM
B4: Tie2.38 (antibody, IgG1, V domains shown)
VH: EVQLVESGGGLVQPGGSLRLSCAASGFTFSNSAIHWVRQAPGKGLEWVASITPYNGYTYYADSVKGRFTISADTSKNTAYLQMNSLRAEDTAVYYCARRQSYSYVMDYWGQGTLVTVSS
VL: DIQMTQSPSSLSASVGDRVTITCRASQDVSTAVAWYQQKPGKAPKLLIYSASFLYSGVPSRFSGSGSGTDFTLTISSLQPEDFATYYCQQSYTTPPTFGQGTKVEIKR
notes: hIgG1 in later assays; also called Ab38
